{"source": "patent US20260116968A1", "about": "(CELLDEX THERAPEUTICS, published 2026)", "key": {"[1]": {"biological_target": "T1, human CD40 expressed on the cell surface (Raji cells, Ramos cells, human PBMC B cells, luciferase reporter … (human, UniProt P25942 21-277))", "T1 construct": "also called CD40 on cells expressing human CD40", "T1 sequence (P25942 21-277 limits assumed)": "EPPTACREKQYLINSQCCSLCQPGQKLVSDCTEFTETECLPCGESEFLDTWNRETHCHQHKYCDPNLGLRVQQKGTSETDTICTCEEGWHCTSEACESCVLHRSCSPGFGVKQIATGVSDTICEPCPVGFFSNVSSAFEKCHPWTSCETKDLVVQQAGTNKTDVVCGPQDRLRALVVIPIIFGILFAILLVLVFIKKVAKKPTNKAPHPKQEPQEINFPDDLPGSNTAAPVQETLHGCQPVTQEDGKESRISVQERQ", "experiment": "flow cytometry on Raji and Ramos cells", "method": "Antibodies from Example 1 were tested for binding to human cell lines expressing human CD40 on their surface. […] After 20 minutes, the cells were washed with PBS containing 0.1% BSA and 0.05% NaN3 (PBA) and the bound antibodies were detected by incubating the cells with a PE labeled goat anti-human IgG Fc-specific probe. The excess probe was washed from the cells with PBA and the cell associated fluorescence was determined by analysis using a FACSCanto II™ instrument (BD Biosciences, NJ, USA) according to the manufacturer's directions."}, "[2]": {"biological_target": "T2, kappa-sCD40(1-94)-Flag mutant fragment B (multiple mutations of residues 13-15) (human, UniProt P25942 21-114)", "T2 construct": "also called B (13-15); not shown: The N-terminal human kappa light chain and the C-terminal Flag tag", "T2 chain": "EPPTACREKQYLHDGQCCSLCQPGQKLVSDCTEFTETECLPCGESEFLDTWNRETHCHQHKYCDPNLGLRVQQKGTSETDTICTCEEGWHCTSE", "experiment": "ELISA, kappa-sCD40-Flag captured by anti-Flag, anti-human IgG Fc-HRP detection", "method": "(§1) 1 μg/ml of purified kappa-sCD40-Flag fusion proteins or CHO cell supernatants containing the sCD40 fusion proteins were captured to microtiter plates that were pre-coated with 5 μg/ml mouse anti-Flag antibody (Sigma) in PBS and blocked with 5% bovine serum albumin in PBS. Following incubation with the CD40 antibody, the microplates were washed with PBS/Tween, and incubated with a goat anti-human IgG Fc polyclonal reagent conjugated to horseradish peroxidase. After washing, the plates were developed with HRP substrate, and analyzed at OD 450-650 using a microtiter plate reader. An ELISA with a goat anti-human IgG Fab2-HRP to measure kappa chain binding was carried out in parallel to validate the sCD40 fusion protein expression from different transfections."}, "[3]": {"biological_target": "T3, kappa-sCD40(1-94)-Flag mutant fragment C (multiple mutations of residues 25, 26, 28 and 30) (human, UniProt P25942 21-114)", "T3 construct": "also called C (25, 26, 28, 30); not shown: The N-terminal human kappa light chain and the C-terminal Flag tag", "T3 chain": "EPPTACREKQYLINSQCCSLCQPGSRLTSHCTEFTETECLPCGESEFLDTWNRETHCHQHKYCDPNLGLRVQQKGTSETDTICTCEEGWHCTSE", "experiment": "ELISA, kappa-sCD40-Flag captured by anti-Flag, anti-human IgG Fc-HRP detection", "method": "as §1"}, "[4]": {"biological_target": "T2, kappa-sCD40(1-94)-Flag mutant fragment …", "experiment": "ELISA, kappa-sCD40-Flag (~2 ug/ml) captured by anti-Flag, anti-human IgG Fc-HRP detection", "method": "as §1, with “containing” for “1 μg/ml of purified kappa-sCD40-Flag fusion proteins or CHO cell supernatants containing”"}, "[5]": {"biological_target": "T3, kappa-sCD40(1-94)-Flag mutant fragment …", "experiment": "ELISA, kappa-sCD40-Flag (~2 ug/ml) captured by anti-Flag, anti-human IgG Fc-HRP detection", "method": "as §1, with “containing” for “1 μg/ml of purified kappa-sCD40-Flag fusion proteins or CHO cell supernatants containing”"}}}
{"binder": "anti-CD40 human monoclonal antibody 6H6 (antibody, human IgG2, V domains shown, Human IgG2) VH: QVQLVESGGGVVQPGRSLRFSCAASGFTLSSYGMHWVRQAPGKGLEWVAVIWDDGSNKYYADSVKGRFTISRDNSKNTLYLQMNSLRAEDTAVYYCARAGGSGRYYNYFDYWGQGTLVTVSS VL: EIVMTQSPATLSVSPGERATLSCRASQSVRSNLAWYQQKPGQAPRLLIYGASTRATGIPARFSGSGSGTDFTLTISSLQSEDFAVYYCQQHNNWLTFGGGTKVEIK", "values": [{"measurement": "binding result", "setting": "[1]", "result": "binds"}]}
{"binder": "anti-CD40 human monoclonal antibody 1B4 (antibody, human IgG2, V domains shown, Human IgG2) VH: EVQLLESGGGLVQPGGSLRLSCAASGFTFSSYAMTWVRQVPGKGLEWVSGITGSGANTFYTDSVKGRFTISRDNSNNSLYLQMNSLRADDTAVYYCAKRNGGSYYYYYGMDVWGQGTTVTVSS VL: not shown", "values": [{"measurement": "binding result", "setting": "[1]", "result": "binds"}]}
{"binder": "anti-CD40 human monoclonal antibody 3B6 (antibody, human IgG2, V domains shown, Human IgG2) VH: EVQLLESGGGLVQPGGSLRLSCAASGFTFSSYAMSWVRQAPGKGLEWVSGITGTGGSTYYADSVKGRFTISRDNSKNTLYVQMNSLRAEDTAVYYCAKRAGGSFYYYYGMDVWGQGTTVTVSS VL: DIVMTQSPLSLPVTPGEPASISCRSSQSLLHSTGYNYLDWYLQKPGQSPQLLIYLGSNRASGVPDRFNGSGSGTDFTLKISRVEAEDFGVYYCMQALQTPWTFGHGTKVEIK", "values": [{"measurement": "binding result", "setting": "[1]", "result": "binds"}]}
{"binder": "anti-CD40 human monoclonal antibody 3C3 (antibody, human IgG2, kappa, V domains shown, Full chains with leader removed; human IgG2 constant domain with C-terminal lysine removed; also called anti-CD40 mAb 3C3; CD40 antibody 3C3) VH: QVQLVESGGGVVQPGRSLRLSCAGSGFIFSRYGMYWVRQAPGKGLEWVAVIWYDGSYKYYADSVKGRFTISRDNSKNTLYLQMNSLRAEDTAVYYCARESPWYYFDYWGQGTLVTVSS VL: DIQMTQSPSSLSASVGDRVTITCRASQGISNYLAWYQQKPGKVPKLLIYAASTLQSGVPSRFSGSGSGTDFTLTISSLQPEDVATYYCQKYKSAPFTFGPGTKVDIKR", "values": [{"measurement": "Average OD", "setting": "[2]", "result": 2.03, "unit": "OD 450-650"}, {"measurement": "Average OD", "setting": "[3]", "result": 1.49, "unit": "OD 450-650"}, {"measurement": "OD", "setting": "[4]", "result": 2.38, "unit": "OD 450-650"}, {"measurement": "OD", "setting": "[5]", "result": 2.02, "unit": "OD 450-650"}]}
